Measurements as given in publication PMC1278935, “Different Catalytic Mechanisms in Mammalian Selenocysteine- and Cysteine-Containing Methionine-R-Sulfoxide Reductases” (PLoS Biology, 2005).

System: T1, CN(C)c1ccc(N=Nc2ccc(S(=O)(=O)N[C@@H](CC[S@@+](C)[O-])C(=O)O)cc2)cc1
T1 construct: full-length mouse MsrB2, C-terminal His tag (LEHHHHHH), E. coli BL21(DE3), monomer
Experiment: HPLC of dabsyl-Met, Lineweaver-Burk
Assay type: biochemical, Mus musculus
Details: 20 mM DTT, 50 mM sodium phosphate pH 7.5, 50 mM NaCl, 37 °C, from E. coli
Excerpt: HPLC of dabsyl-Met, Lineweaver-Burk on MsrB2

MsrB2 (Mus musculus; H119G), sequence (chain, as listed by the source H119G): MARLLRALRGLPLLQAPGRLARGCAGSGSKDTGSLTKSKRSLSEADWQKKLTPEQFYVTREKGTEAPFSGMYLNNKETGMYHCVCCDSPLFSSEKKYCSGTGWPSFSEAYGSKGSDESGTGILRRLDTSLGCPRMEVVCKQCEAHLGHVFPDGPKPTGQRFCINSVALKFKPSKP
MsrB2 (Mus musculus), sequence (chain, as listed by the source): as the sequence (chain, as listed by the source H119G) above, with G119H counted along it
MsrB2 (Mus musculus; V149E), sequence (chain, as listed by the source V149E): as the sequence (chain, as listed by the source H119G) above, with G119H, V149E counted along it

MsrB2 (Mus musculus) was tested, and the Km was 310 ± 100 µM and the kcat was 0.458 ± 0.0633 s⁻¹.

Substance MsrB2 (Mus musculus; H119G) has a Km (MsrB1 numbering) of 340 ± 60 µM and a kcat (MsrB1 numbering) of 0.0083 ± 0.0017 s⁻¹.

Work on MsrB2 (Mus musculus; V149E) yielded a Km (MsrB1 numbering) of 140 ± 40 µM and a kcat (MsrB1 numbering) of 0.0933 ± 0.012 s⁻¹.
